Measurements: patent publication US20170015742A1 (published 2017)
Substitutions are numbered along the chain they refer to. Several values for one entry are separate records, joined by “and”; a condition that tells them apart may be missing. Identical values can stand only once. Blank lines part the entries; values can stand above or below the binder they belong to.

Legend:
Human VEGF-A 165 [1] = molecular target: T1, Human VEGF-A 165 (human, UniProt P15692 207-395); assay: cell-based or functional assay
human VEGF111 = molecular target: T2, human VEGF111 (human, UniProt P15692-10 27-137); assay: cell-based or functional assay
T2 sequence (looked up): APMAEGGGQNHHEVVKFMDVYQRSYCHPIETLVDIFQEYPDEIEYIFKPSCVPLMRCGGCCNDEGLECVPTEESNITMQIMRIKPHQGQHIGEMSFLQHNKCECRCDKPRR

Human VEGF-A 165 [2] = molecular target: T1, Human VEGF-A 165; assay: SPR (Biacore), antibody captured by anti-human Fc, hVEGF165 as analyte
Protocol: (§1) For example, approximately 9000 RU of goat anti-human Fc specific polyclonal antibody (Thermo Fisher Scientific Inc., Rockford, Ill.) diluted in 10 mM sodium acetate (pH 4.5) is directly immobilized across a CM5 research grade biosensor chip using a standard amine coupling kit according to manufacturer's instructions and procedures at 25 μg/ml. Unreacted moieties on the biosensor surface were blocked with ethanolamine. For kinetic analysis, rate equations derived from the 1:1 Langmuir binding model were fitted simultaneously to multiple antigen injections (using global fit analysis) with the use of Scrubber 2 (BioLogic Software), Biacore Biaevaluation 4.0.1 software or Biacore T100 Evaluation software. Purified antibodies or DVD-Ig molecules were diluted in running buffer for capture across goat anti-human Fc reaction surfaces. Antibodies or DVD-Ig molecules to be captured as a ligand (1 μg/ml) were injected over reaction matrices at a flow rate of 10 μl/minute. During the assay, all measurements were referenced against the capture surface alone (i.e., with no captured antibody or DVD-Ig molecule). […] The equilibrium dissociation constant KD (M) of the reaction between antibodies and the target antigen was then calculated from the kinetic rate constants by the following formula: KD=Koff/Kₒₙ. Binding was recorded as a function of time and kinetic rate constants were calculated.

Human VEGF-A 165 [3] = molecular target: T1, Human VEGF-A 165; assay: receptor competition ELISA: antibody titrated against biotinylated hVEGF165, binding to coated hVEGF-R2-Fc read
Protocol: To identify molecules that could block the binding of hVEGF₁₆₅ to the hVEGF-R2 (KDR/Flk-1) receptor, a competition ELISA was performed. […] Plates were then washed four times with wash buffer (TBS, 0.05% Tween-20) and blocked with Superblock blocking buffer (Thermo Scientific, cat#37535). […] The pre-incubated sample/hVEGF₁₆₅ complex was added to the coated plate at 50 μL in duplicate and incubated for 30 minutes at 25° C. with shaking. Following incubation, plates were washed four times with wash buffer. Streptavidin-polyHRP-40 (Fitzgerald cal#65r-s104phrp) was diluted in assay diluent (10% Superblock containing 0.05% surfactamps) and added to plates (50 μL) for 45 minutes at 25° C. with shaking. Plates were washed four times with wash buffer and developed with the addition of Enhanced K-blue TMB substrate (Neogen cat#308177). The reaction was stopped with 2N sulfuric acid (VWR, cat# BDH3500-1) and the absorbance was read at 450 nm-570 nm. A decrease in observed optical density indicates the test molecule is blocking the hVEGF₁₆₅ binding to the hVEGF-R2-Fc. Data was analyzed using Softmax Pro 4.8 software and IC₅₀ values calculated using a sigmoidal dose response (variable slope) fit in GraphPad Prism 5.

[4] = molecular target: T3, recombinant human PDGF-BB (human, UniProt P01127 82-190, biotin-labelled in the binding and competition ELISAs (sites not given)); assay: Biacore SPR, antibody captured, PDGF-BB injected
T3 construct: Bought protein (CST cat#8912BF) in the ELISAs and cell assays; purified recombinant PDGF-BB in Biacore; also called huPDGF-BB; hPDGF-BB
Protocol: as §1

[5] = molecular target: T3, recombinant human PDGF-BB; assay: cell-based or functional assay
Target sequence in this assay (P01127 82-190 limits assumed): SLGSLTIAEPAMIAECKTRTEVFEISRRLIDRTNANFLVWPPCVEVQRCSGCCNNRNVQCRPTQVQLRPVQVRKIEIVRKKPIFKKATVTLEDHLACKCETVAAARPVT

recombinant rat PDGF-BB [6] = molecular target: recombinant rat PDGF-BB (rat, UniProt Q05028 74-182); assay: cell-based or functional assay
Target sequence in this assay (Q05028 74-182 limits assumed): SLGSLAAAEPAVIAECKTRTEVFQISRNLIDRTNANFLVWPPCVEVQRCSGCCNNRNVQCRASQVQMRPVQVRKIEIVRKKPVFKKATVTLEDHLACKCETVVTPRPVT

[7] = molecular target: T3, recombinant human PDGF-BB; assay: receptor competition ELISA: antibody pre-incubated with biotin-hPDGF-BB, binding to coated hPDGF-Rβ-Fc
Protocol: (§2) Plates were then washed four times with wash buffer (TBS, 0.05% Tween-20) and blocked with Superblock blocking buffer (Thermo Scientific, cat#37535). During the blocking step, supernatants, antibodies, benchmark compounds or DVD-Ig were diluted in assay diluent (10% Superblock containing 0.05% surfactamps) and an eight point titration of each sample molecule was performed. […] Following incubation, plates were washed four times with wash buffer. Detection reagent Streptavidin-polyHRP-40 (Fitzgerald, cat#65r-s104phrp) was diluted in assay diluent and added to plates (50 μL) for 45 minutes at 25° C. with shaking. Plates were washed four times with wash buffer and developed with the addition of Enhanced K-blue TMB substrate (Neogen, cat#308177). The reaction was stopped with 2N sulfuric acid (VWR, cat# BDH3500-1) and the absorbance was read at 450 nm-570 nm. […] Data was analyzed using Softmax Pro 4.8 software and IC₅₀ values calculated using a sigmoidal dose response (variable slope) fit in GraphPad Prism 5.
Target sequence in this assay (P01127 82-190 limits assumed): as the sequence (P01127 82-190 limits assumed) above

[8] = molecular target: T4, recombinant human PDGF-BB (human, UniProt P01127 82-190); assay: cell-based or functional assay
recombinant rat PDGF-BB [9] = molecular target: recombinant rat PDGF-BB (rat, UniProt Q05028 74-182); assay: cell-based or functional assay; remark: listed apart in the source
Target sequence in this assay (Q05028 74-182 limits assumed): as the sequence (Q05028 74-182 limits assumed) above

[10] = molecular target: T4, recombinant human PDGF-BB; assay: competition ELISA: blocks biotin-hPDGF-BB binding to coated hPDGF-Rβ-Fc
Protocol: as §2

rat PDGF-B (PR-1645048) = molecular target: T5, rat PDGF-B (PR-1645048) (rat, UniProt Q05028 74-182); assay: SPR (Biacore), antibody captured by anti-human Fc, antigen injected
T5 construct: Lot 2235300; also called rat PDGF-BB; ratPDGF-BB
Protocol: as §1, with “Unreacted” for “For example, approximately 9000 RU of goat anti-human Fc specific polyclonal antibody (Thermo Fisher Scientific Inc., Rockford, Ill.) diluted in 10 mM sodium acetate (pH 4.5) is directly immobilized across a CM5 research grade biosensor chip using a standard amine coupling kit according to manufacturer's instructions and procedures at 25 μg/ml. Unreacted”, “calculated. In this assay, on-rates as fast as 10⁶M⁻¹s⁻¹ and off-rates as slow as 10⁻⁶ s⁻¹ could be measured.” for “calculated.”

T4 sequence (P01127 82-190 limits assumed): as the sequence (P01127 82-190 limits assumed) above
T5 sequence (Q05028 74-182 limits assumed): as the sequence (Q05028 74-182 limits assumed) above

B2: BFU-11A8-D6-C3 (antibody, V domains shown)
VH: EVQLQQSGPELQRPGASVKLSCKASGYTFTESYIYWVKQRPEQSLELIGRIDPEDGSTDYVEKFKNKATLTADTSSNTAYMQLSSLTSEDTATYFCARFGARSYFYPMDAWGQGTSVTVSS
VL: DTVLTQSPTLAVSPGERVSIPCRASESVSTLMHWYQQKPGQQPRLLIYGASNLESGVPARFSGSGSGTDFTLTIDPVEADDTATYFCQQSWNDPWTFGGGTKLELK
Kd [4]: ≤ 0.047 pM
koff [4]: ≤ 1e-06 s⁻¹
kon [4]: 2.1e+07 M⁻¹ s⁻¹

B5: BDI-5H1-F6 (antibody, IgG2b, V domains shown)
VH: QVTLKESGPGILQPSQTLSLTCTFSGFSLSTFGMGVGWIRQPSGKGLEWLANIWWDDDKYYNPSLKNRLTISKDTSNSQAFLEITNVDTADTATYYCARISTGISSYYVMDAWGQGASVTVSS
VL: QFTLTQPKSVSGSLRSTITIPCERSSGDIGDTYVSWYQQHLGRPPINVIYGNDQRPSEVSDRFSGSIDSSSNSASLTITNLQMDDEADYFCQSYDSDIDIVFGGGTKLTVL
notes: Rat hybridoma monoclonal antibody
Phospho-Tyr751/hPDGF-BB Neutralization [8]: 0.884 nM
huPDGF-BB Neutralization Potency (nM) in NIH-3T3 Cells [8]: 0.371 nM
Phospho-Tyr751/ratPDGF-BB Neutralization (recombinant rat PDGF-BB [9]): 0.319 nM
IC50 [10]: 528 pM

B6: BDI-9E8-E7 (antibody, IgG2b, V domains shown)
VH: QVTLKESGPGILQPSQTLSLTCTFSGFSLSTYGMGVGWIRQPSGKGLEWLANIWWDDDKYYNPSLKNRLTISKDTSNNQAFLKITNVDTADTATYYCARIESIGTTYSFDYWGQGVMVTVSS
VL: B5 VL with T32S, G51A, N52D, S96I, D97N
notes: as for B5
Phospho-Tyr751/hPDGF-BB Neutralization [8]: 0.629 nM
huPDGF-BB Neutralization Potency (nM) in NIH-3T3 Cells [8]: 0.195 nM
Phospho-Tyr751/ratPDGF-BB Neutralization (recombinant rat PDGF-BB [9]): 0.333 nM
IC50 [10]: 1120 pM

B7: chBDB-4G8 (antibody, human IgG1, kappa, L234A L235A)
heavy: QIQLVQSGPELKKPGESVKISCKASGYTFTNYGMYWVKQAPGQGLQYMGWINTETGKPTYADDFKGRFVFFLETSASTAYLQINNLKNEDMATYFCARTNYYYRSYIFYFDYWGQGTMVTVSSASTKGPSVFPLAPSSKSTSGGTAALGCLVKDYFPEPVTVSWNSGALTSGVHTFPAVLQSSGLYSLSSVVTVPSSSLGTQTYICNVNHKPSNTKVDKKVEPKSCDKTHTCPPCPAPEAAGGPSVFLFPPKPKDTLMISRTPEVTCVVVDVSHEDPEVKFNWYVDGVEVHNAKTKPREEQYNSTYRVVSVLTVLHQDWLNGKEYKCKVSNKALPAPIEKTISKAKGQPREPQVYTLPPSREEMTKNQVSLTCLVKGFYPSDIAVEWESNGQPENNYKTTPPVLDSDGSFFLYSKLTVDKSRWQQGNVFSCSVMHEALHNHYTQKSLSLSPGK
light: DTVLTQSPALAVSPGERVSISCRASESVSTHMHWYQQKPGQQPKLLIYGASNLESGVPARFSGSGSGTDFTLTIDPVEADDTATYFCQQSWNDPFTFGAVTKLELKRTVAAPSVFIFPPSDEQLKSGTASVVCLLNNFYPREAKVQWKVDNALQSGNSQESVTEQDSKDSTYSLSSTLTLSKADYEKHKVYACEVTHQGLSSPVTKSFNRGEC
huVEGF-A165 Neutralization Potency in HMVEC-d cells (Human VEGF-A 165 [1]): 195 pM
Phospho-Tyr1054/huVEGF-A111 Neuterlization (human VEGF111): 0.575 nM
Kd (Human VEGF-A 165 [2]): 1.9 pM and 3.8 pM
kon (Human VEGF-A 165 [2]): 1.7e+07 M⁻¹ s⁻¹ and 1.2e+07 M⁻¹ s⁻¹
IC50 (Human VEGF-A 165 [3]): 157 pM

B8: CL-33675 (antibody, V domains shown)
VH: EVTLRESGPALVKPTQTLTLTCTFSGFSLSTYGMGVGWIRQPPGKALEWLANIWWDDDKYYNPSLKNRLTISKDTSKNQVVLTMTNMDPVDTATYYCARIESSGPKYSFDYWGQGTMVTVSS
VL: EIVLTQSPGTLSLSPGERATLSCRASSGSIWYSFVSWYQQKPGQAPRLLIYADDQRASGIPDRFSGSGSGTDFTLTISRLEPEDFAVYYCQSYGINIDVVFGGGTKVEIK
notes: Converted to IgG; also called CL-33675-IgG; PR-1593725
Kd (rat PDGF-B (PR-1645048)): ≤ 0.58 pM
koff (rat PDGF-B (PR-1645048)): 5.8e-06 s⁻¹
kon (rat PDGF-B (PR-1645048)): ≥ 1e+07 M⁻¹ s⁻¹

B9: BDI-7H10-D8 (antibody, IgG2b, V domains shown)
VH: EVKLQQSGDELVRPGASVKMSCKASGYTFTDYAMHWVKQSPGQGLEWIGTIIPLIDTTSYNQKFKGKATLTADTSSNTAYMELSRLTSEDSAVYYCARDWDNNWGYFDYWGQGVMVTVSS
VL: DVVLTQTPVSLSVTLGDQASISCRSSQSLEYSDGYTYLEWYLQKPGQSPQLLIYGVSNRFSGVPDRFIGSGSGTDFTLKISRVEPEDLGVYYCFQATHDPLTFGSGTKLEIK
Phospho-Tyr751/ratPDGF-BB Neutralization (recombinant rat PDGF-BB [9]): > 5 nM

Second part, the binder after the results:

huVEGF-A165 Neutralization Potency in HMVEC-d cells (Human VEGF-A 165 [1]): 31 pM
Phospho-Tyr1054/huVEGF-A111 Neuterlization (human VEGF111): 0.435 nM
Kd (Human VEGF-A 165 [2]): 8.8 pM
kon (Human VEGF-A 165 [2]): 4.9e+06 M⁻¹ s⁻¹
IC50 (Human VEGF-A 165 [3]): 148 pM
B1: chBEW-6C2 (antibody, human IgG1, kappa, L234A L235A, V domains shown)
VH: EVQLVESGGGLVQPGSSLKLSCAASGFTFSYYGMHWIRQAPKKGLEWMALIYYDSSKMYYADSVKGRFTISRDNSKNTLYLEMNSLRSEDTAMYYCAAGGTAPVYWGQGVMVTVSS
VL: NIQLTQSPSLLSASVGDRVTLSCKGSQNIANYLAWYQQKLGEAPKLLIYNTDSLQTGIPSRFSGSGSGTDYTLTISSLQPEDVATYFCYQSNNGYTFGAGTKLELRR

huVEGF-A165 Neutralization Potency in HMVEC-d cells (Human VEGF-A 165 [1]): 26 pM
Phospho-Tyr1054/huVEGF-A111 Neuterlization (human VEGF111): 0.26 nM
Kd (Human VEGF-A 165 [2]): ≤ 0.11 pM
kon (Human VEGF-A 165 [2]): 8.9e+06 M⁻¹ s⁻¹
IC50 (Human VEGF-A 165 [3]): 97 pM
B3: chBEW-9A8 (antibody, human IgG1, kappa, L234A L235A, V domains shown)
VH: QIQLVQSGPELKKPGESVKISCKASGYTFTNYGMYWVKQAPGQGLQYMGWINTETGKPIYADDFKGRFVFFLETSASTAYLQINNLKNEDMATFFCARVDYDGSFWFAYWGQGTLVTVSS
VL: DTVLTQSPALAVSPGERVSISCRASESVSTVIHWYQQKPGQQPKLLIHGASNLESGVPARFSGSGSGTDFTLTIDPVEADDTATYFCQQHWNDPPTFGAGTKLEMKR

huPDGF-BB Neutralization Potency (nM) in NIH-3T3 Cells [5]: 0.181 nM
ratPDGF-BB Neutralization Potency (nM) in NIH-3T3 Cells (recombinant rat PDGF-BB [6]): 0.118 nM
IC50 [7]: 1080 pM
B4: chBDI-5G2 (antibody, human IgG1, V domains shown)
VH: B5 VH
VL: B5 VL
notes: also called chimeric BDI-5G2-F9
